Earlier results, collected in PMC12071944, “Interaction Between Glucagon-like Peptide 1 and Its Analogs with Amyloid-β Peptide Affects Its Fibrillation and Cytotoxicity” (International Journal of Molecular Sciences, 2025).

Tested on: AD patients
Conditions: human, in vivo
Description: Worldwide, approximately 416 million individuals are affected by AD dementia, prodromal AD, or preclinical AD, accounting for 22% of the population aged 50 years and older.

B1: lecanemab (antibody, chains of the INN, looked up, V domains shown)
VH: EVQLVESGGGLVQPGGSLRLSCSASGFTFSSFGMHWVRQAPGKGLEWVAYISSGSSTIYYGDTVKGRFTISRDNAKNSLFLQMSSLRAEDTAVYYCAREGGYYYGRSYYTMDYWGQGTTVTVSS
VL: DVVMTQSPLSLPVTPGAPASISCRSSQSIVHSNGNTYLEWYLQKPGQSPKLLIYKVSNRFSGVPDRFSGSGSGTDFTLRISRVEAEDVGIYYCFQGSHVPPTFGPGTKLEIK
For B1, the side effects is given as “brain edema and microhemorrhages”.
